Experiments:
[1] = molecular target: the molecule itself; assay: crystal structure; CrSAS-6 combined with a 2x molar excess of monobody, complex purified by SEC; sitting drop vapor diffusion at 18 °C
[2] = molecular target: the molecule itself; assay: PORT-HS-AFM; CrSAS-6_NL adsorbed on mica, 11-16 nM (equilibrium) or 44 nM (assembly reaction); 150 mM KCl, 20 mM Tris-HCl pH 8.0; monobodies at 6.8 µM, 14.5 µM and 12.9 µM

B1: CrSAS-6_N, N-terminal globular domain of Chlamydomonas reinhardtii SAS-6 (domain or fragment, UniProt A9CQL4 1-159, looked up)
chain: MPLLLDDGDPKAQTGFDLSTATTLFWRPVPVHVKQQDREDVLEELTFRILTGVAKQNHNLRILRIHISSDSDLFFLHTLEVSEEDFQSLKNDQGILVDFASFPGKIISLLEKCILAQPGDSPRFQAVLTIRGGESVFKIVEINDFKQLPHITLAFRPGN
notes: SAS-6 of Chlamydomonas reinhardtii, N-terminal globular head domain, residues 1-159 (the methods list the two ranges in the reverse order of the two names); source: E. coli BL21(DE3), purified (HisTrap, tag cleavage by protease, SEC); not shown: His6, N-terminal, cleaved; AVI-tag, N-terminal, cleaved
binding result [1]: binds

B2: CrSAS-6_6HR-[F145E] (domain or fragment, Chlamydomonas reinhardtii, UniProt A9CQL4 1-226, looked up)
chain: MPLLLDDGDPKAQTGFDLSTATTLFWRPVPVHVKQQDREDVLEELTFRILTGVAKQNHNLRILRIHISSDSDLFFLHTLEVSEEDFQSLKNDQGILVDFASFPGKIISLLEKCILAQPGDSPRFQAVLTIRGGESVFKIVEINDEKQLPHITLAFRPGNDSVVKQFLAFRLSEVKGTCHDLSDDLSRTRDDRDSMVAQLAQCRQQLAQLREQYDKHLLEVQAQAKT
notes: SAS-6 of Chlamydomonas reinhardtii, residues 1-226 (limits as for CrSAS-6_6HR) with F145E; arranged as homodimers in the crystal; also called CrSAS-6_6HR harboring the mutation F145E; source: E. coli BL21(DE3), purified (HisTrap, tag cleavage by protease, SEC); not shown: His6, N-terminal, cleaved; AVI-tag, N-terminal, cleaved
binding result [1]: binds

B3: CrSAS-6_6HR, N-terminal domain and six heptad repeats of the coiled-coil of Chlamydomonas reinhardtii SAS-6 (domain or fragment, UniProt A9CQL4 1-226, looked up)
chain: MPLLLDDGDPKAQTGFDLSTATTLFWRPVPVHVKQQDREDVLEELTFRILTGVAKQNHNLRILRIHISSDSDLFFLHTLEVSEEDFQSLKNDQGILVDFASFPGKIISLLEKCILAQPGDSPRFQAVLTIRGGESVFKIVEINDFKQLPHITLAFRPGNDSVVKQFLAFRLSEVKGTCHDLSDDLSRTRDDRDSMVAQLAQCRQQLAQLREQYDKHLLEVQAQAKT
notes: homodimer through the coiled-coil; source: E. coli BL21(DE3), purified (HisTrap, tag cleavage by protease, SEC); not shown: His6, N-terminal, cleaved; AVI-tag, N-terminal, cleaved
binding result [1]: binds

B4: CrSAS-6_NL, N-terminal head domain and the entire coiled-coil of Chlamydomonas reinhardtii SAS-6 (domain or fragment, UniProt A9CQL4 1-503, looked up)
chain: MPLLLDDGDPKAQTGFDLSTATTLFWRPVPVHVKQQDREDVLEELTFRILTGVAKQNHNLRILRIHISSDSDLFFLHTLEVSEEDFQSLKNDQGILVDFASFPGKIISLLEKCILAQPGDSPRFQAVLTIRGGESVFKIVEINDFKQLPHITLAFRPGNDSVVKQFLAFRLSEVKGTCHDLSDDLSRTRDDRDSMVAQLAQCRQQLAQLREQYDKHLLEVQAQAKTQQASAHEERIREKSQLKDQFEKERGEMEGRYRDQIAALNTRLGELDTENRKLREVKYELDTKVSELSHKLGSSEGSNRSLEEETARLRSLNQQLSSSKHELEIQLNEAKAKVLALDEKAQSQGDVIEQQRGRLRDMEAALRQTEQRCADLRDTLASAEGRAKEAQAEVLKGNQAIEKLTNDLRLAKEKTKRKAAIILRQEEELQEREQSLANATRDVGVLGQQAESLRKDVASLHSENDSLRSKLEDSKQQLQSNEQMIRWLNQQVTEAQLHASGAT
notes: SAS-6 of Chlamydomonas reinhardtii, N-terminal head domain and entire coiled-coil, residues 1-503; pFLOAT2-His vector, PreScission Protease site after the His tag; homodimers that assemble into ring polymers; source: E. coli BL21(DE3), purified (HisTrap, SEC)
binding result [2]: binds

From paper PMC8217511, “Tuning SAS-6 architecture with monobodies impairs distinct steps of centriole assembly” (Nature Communications, 2021)
